Experimental data: the supplement of paper PMC12042874
± gives the uncertainty stated by the source.

test: amyloid nucleation score (Sup35N fusion, yeast selection) (log enrichment); library NNK2; higher = more nucleation; inactive = no reads after selection
Summary of the method: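 For the nucleation score, DiMSum gave the log enrichment of output over input reads, centred on the mode score of non-aggregating sequences. Psi-negative yeast expressing Sup35N fused to peptides of 20 random codons were induced with 100 μM copper sulfate for 24 hours and grown 7 days at 30°C on medium lacking adenine and uracil. Input and output plasmid inserts were Illumina-sequenced, and sequences with under 100 input reads were excluded.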

For NWVMVLGLGVCKSIWLLPMV, which amyloid nucleation score is on record?
The amyloid nucleation score was -0.572 ± 0.76.

Which amyloid nucleation score does the source give for NWWESRAFGWYDSLSIFSYT here?
Its amyloid nucleation score is -0.469 ± 1.1.

With NYCMRGVASIG as the substance, how does the amyloid nucleation score read?
The amyloid nucleation score was -0.475 ± 0.45.

Which amyloid nucleation score does the source give for NYCNDGVGCYS here?
The amyloid nucleation score was 4.82 ± 0.067.

With NYFSTDMGFCLRDTYCRCEI as the substance, how does the amyloid nucleation score read?
Its amyloid nucleation score is 4.68 ± 0.089.

Which amyloid nucleation score does the source give for NYITSSVCFCCSDPMYTPSR here?
The amyloid nucleation score was 8.552 ± 0.031.

Which amyloid nucleation score does the source give for NYLTQCSRSFNFARVDF here?
Its amyloid nucleation score is -0.003 ± 0.56.

Which amyloid nucleation score does the source give for NYREMLWSDIRVVS here?
The amyloid nucleation score was 0.004 ± 1.1.

For NYSRL, which amyloid nucleation score is on record?
Its amyloid nucleation score is -0.099 ± 0.26.

With NYVCSWMLRFSVGRSQIPAV as the substance, how does the amyloid nucleation score read?
Its amyloid nucleation score is -0.924 ± 0.76.

Which amyloid nucleation score does the source give for NYWRDGQNDLGWLSLANFFK here?
The amyloid nucleation score was “inactive”.

With NYYQR as the substance, how does the amyloid nucleation score read?
The amyloid nucleation score was 0.025 ± 1.1.

With PACTLESYRSNNFDGLFMTT as the substance, how does the amyloid nucleation score read?
The amyloid nucleation score was -0.609 ± 0.76.

Which amyloid nucleation score does the source give for PALCVNAVTKIDRNNCYDNG here?
The amyloid nucleation score was 3.92 ± 0.064.

For PALQCLSHRAIA, which amyloid nucleation score is on record?
Its amyloid nucleation score is 0.222 ± 0.62.

Which amyloid nucleation score does the source give for PASISLNFS here?
Its amyloid nucleation score is 1.58 ± 0.22.

With PAVWVN as the substance, how does the amyloid nucleation score read?
The amyloid nucleation score was -0.34 ± 0.56.

For PCENLVCEII, which amyloid nucleation score is on record?
Its amyloid nucleation score is “inactive”.

Which amyloid nucleation score does the source give for PCGLIV here?
Its amyloid nucleation score is 0.22 ± 0.63.

With PCPSISGLFASAYPITRLSL as the substance, how does the amyloid nucleation score read?
The amyloid nucleation score was -0.347 ± 0.24.

For PCTRS, which amyloid nucleation score is on record?
The amyloid nucleation score was 0.414 ± 0.31.

Which amyloid nucleation score does the source give for PDAIVSGVEHAKGTSDAALS here?
The amyloid nucleation score was -0.15 ± 0.28.

With PDDLYCNPEGSLYQSIW as the substance, how does the amyloid nucleation score read?
Its amyloid nucleation score is “inactive”.

Which amyloid nucleation score does the source give for PDGTVYDGYSFCSVS here?
Its amyloid nucleation score is -0.615 ± 0.63.

With PDPVPM as the substance, how does the amyloid nucleation score read?
Its amyloid nucleation score is 0.632 ± 0.31.

For PDVTGKELHF, which amyloid nucleation score is on record?
The amyloid nucleation score was 3.42 ± 0.071.

Which amyloid nucleation score does the source give for PFAWANKYTIQPINPYRGAA here?
The amyloid nucleation score was -0.552 ± 0.41.

For PFCCLWFGLMHSSGVFRFMG, which amyloid nucleation score is on record?
Its amyloid nucleation score is “inactive”.

Which amyloid nucleation score does the source give for PFDFAGA here?
The amyloid nucleation score was 2.91 ± 0.087.

For PFLQLCREAIFCLSHDGMLK, which amyloid nucleation score is on record?
Its amyloid nucleation score is -0.575 ± 0.28.

Which amyloid nucleation score does the source give for PFLVLSWDRCN here?
The amyloid nucleation score was -0.288 ± 1.1.

For PFRSS, which amyloid nucleation score is on record?
Its amyloid nucleation score is -0.415 ± 0.36.

Which amyloid nucleation score does the source give for PFSFRLSGINSPPVISVA here?
The amyloid nucleation score was -1.16 ± 0.41.

Which amyloid nucleation score does the source give for PFVNVM here?
The amyloid nucleation score was -0.047 ± 0.38.

For PGCHEVSKF, which amyloid nucleation score is on record?
Its amyloid nucleation score is -1.14 ± 0.47.

For PGCHWISASCGDVLDKGNTG, which amyloid nucleation score is on record?
Its amyloid nucleation score is 0.501 ± 0.62.

With PGCSIDWILYRRTAYGTISD as the substance, how does the amyloid nucleation score read?
The amyloid nucleation score was -0.619 ± 0.36.

With PGMPARVHTCLSAMTYNFMC as the substance, how does the amyloid nucleation score read?
The amyloid nucleation score was -0.901 ± 0.44.

With PGNCRSFCRS as the substance, how does the amyloid nucleation score read?
The amyloid nucleation score was 0.695 ± 0.47.

With PGPAKVANCGWCTYTGGTSH as the substance, how does the amyloid nucleation score read?
The amyloid nucleation score was 1.12 ± 0.45.

With PGRLKCGNSRYFWYFDMRHV as the substance, how does the amyloid nucleation score read?
The amyloid nucleation score was “inactive”.

Which amyloid nucleation score does the source give for PGSVTGMLWSGTFEVRYLGL here?
The amyloid nucleation score was 0.101 ± 0.26.

With PGYPVTFLRRDAYAVREFEF as the substance, how does the amyloid nucleation score read?
The amyloid nucleation score was -0.1 ± 1.

With PGYSVVIWELSEEGTFYKRK as the substance, how does the amyloid nucleation score read?
Its amyloid nucleation score is “inactive”.

Which amyloid nucleation score does the source give for PHCCCRTSHLSPLNQRDKGS here?
The amyloid nucleation score was 0.11 ± 0.77.

For PHCRSLETH, which amyloid nucleation score is on record?
The amyloid nucleation score was -0.083 ± 0.33.

With PHLFFDTFV as the substance, how does the amyloid nucleation score read?
Its amyloid nucleation score is 3.98 ± 0.087.

With PICHLRGGSISRRSNFIQGC as the substance, how does the amyloid nucleation score read?
Its amyloid nucleation score is -1.12 ± 0.76.

With PICLPVNMLVFKSMNSN as the substance, how does the amyloid nucleation score read?
The amyloid nucleation score was 2.28 ± 0.073.

Which amyloid nucleation score does the source give for PIHNNKHGCFSSERSSFHKM here?
The amyloid nucleation score was -1.6 ± 0.75.

Which amyloid nucleation score does the source give for PISNAYCMGTNRSLRIGIRC here?
Its amyloid nucleation score is 0.641 ± 0.21.

With PISTSFYRMSILEYGSR as the substance, how does the amyloid nucleation score read?
The amyloid nucleation score was -0.529 ± 0.64.

Which amyloid nucleation score does the source give for PITCMLQ here?
The amyloid nucleation score was 0.398 ± 0.35.

For PKPTYTP, which amyloid nucleation score is on record?
Its amyloid nucleation score is 0.292 ± 0.38.

Which amyloid nucleation score does the source give for PKVVPMISRIAVPL here?
Its amyloid nucleation score is -0.788 ± 0.76.

Which amyloid nucleation score does the source give for PKWIPYSRRWPWAYIF here?
Its amyloid nucleation score is -1.2 ± 0.48.

Which amyloid nucleation score does the source give for PLCRRLVLLFRIFYNSRN here?
Its amyloid nucleation score is -1.46 ± 1.1.

For PLRVRNNGGTVDKFLLRVFE, which amyloid nucleation score is on record?
The amyloid nucleation score was 0.489 ± 0.4.

For PLSGWYQYIRDGVLSVWLSV, which amyloid nucleation score is on record?
Its amyloid nucleation score is 0.713 ± 0.74.

Which amyloid nucleation score does the source give for PLVLSFFRAIYSYYCNWKTC here?
The amyloid nucleation score was -0.649 ± 0.64.

For PLYSPRVCFFGYAPKVCITH, which amyloid nucleation score is on record?
The amyloid nucleation score was -0.724 ± 0.4.

For PMCISLHVTTKGAMFNRGCF, which amyloid nucleation score is on record?
The amyloid nucleation score was 7.18 ± 0.057.

Which amyloid nucleation score does the source give for PMFVSLVKFTYWSCTVFLGA here?
The amyloid nucleation score was -0.582 ± 0.38.

For PMFYGCGPKLCDYYMNVLFV, which amyloid nucleation score is on record?
Its amyloid nucleation score is 2.85 ± 0.12.

Which amyloid nucleation score does the source give for PMICEHAGHSGWH here?
Its amyloid nucleation score is 1.11 ± 0.22.

Which amyloid nucleation score does the source give for PMSFTLNRRQRRLHMLRTNN here?
The amyloid nucleation score was 0.854 ± 0.43.

With PNERFVSTLWCRDVCDPWSW as the substance, how does the amyloid nucleation score read?
The amyloid nucleation score was 0.798 ± 0.51.

With PNRKSYLAYNMDSPT as the substance, how does the amyloid nucleation score read?
Its amyloid nucleation score is -0.32 ± 0.24.

For PNSRGLSQVNLSFVENRRWS, which amyloid nucleation score is on record?
The amyloid nucleation score was 3.84 ± 0.044.

For PPRYARFKSDLHSLHAVFGN, which amyloid nucleation score is on record?
Its amyloid nucleation score is 5.57 ± 0.061.

For PQNSIPCFAIFTWAWSMKKL, which amyloid nucleation score is on record?
Its amyloid nucleation score is “inactive”.

For PRDNSQVLILLNW, which amyloid nucleation score is on record?
The amyloid nucleation score was 5.424 ± 0.041.

For PREFGRLL, which amyloid nucleation score is on record?
Its amyloid nucleation score is -0.757 ± 0.35.

With PRFAYCSSIANKMMGVG as the substance, how does the amyloid nucleation score read?
Its amyloid nucleation score is 2.36 ± 0.18.

Which amyloid nucleation score does the source give for PRLPTQTITK here?
Its amyloid nucleation score is 1.53 ± 0.16.

With PRMSTMTTKCGKLKNGKYRR as the substance, how does the amyloid nucleation score read?
Its amyloid nucleation score is 0.549 ± 0.51.

With PRPRWRYCFACRLAVFGTVG as the substance, how does the amyloid nucleation score read?
Its amyloid nucleation score is 6.83 ± 0.036.

With PRSGSYYTFF as the substance, how does the amyloid nucleation score read?
The amyloid nucleation score was -0.672 ± 1.1.

For PRSGVSAKQSCAWNVRDGDR, which amyloid nucleation score is on record?
Its amyloid nucleation score is 0.566 ± 0.39.

With PSFMLHTCLFSHGYYILCTG as the substance, how does the amyloid nucleation score read?
Its amyloid nucleation score is 0.005 ± 0.3.

With PSFSFVMTLVNFRPDFLSMH as the substance, how does the amyloid nucleation score read?
The amyloid nucleation score was -1.2 ± 0.78.

With PSFTLMDVFRI as the substance, how does the amyloid nucleation score read?
Its amyloid nucleation score is 0.701 ± 0.26.

With PSHSRMRIMNSTYSSFLLKV as the substance, how does the amyloid nucleation score read?
Its amyloid nucleation score is 0.214 ± 0.18.

With PSNLKFKYSCFLLNKCMGVR as the substance, how does the amyloid nucleation score read?
Its amyloid nucleation score is 0.153 ± 0.43.

Which amyloid nucleation score does the source give for PSSYGWCMLFLVWDIQSTL here?
Its amyloid nucleation score is -0.829 ± 1.

For PSYFRNRIRLSRVGTNGYTR, which amyloid nucleation score is on record?
The amyloid nucleation score was -0.693 ± 1.1.

For PSYMACSA, which amyloid nucleation score is on record?
Its amyloid nucleation score is -0.187 ± 0.56.
